Source: the DeepSol protein solubility set

Test: soluble on expression in E. coli; label from the status in PepcDB or PDB records

Soluble on expression in E. coli, not soluble:
MGSDKIHHHHHHMRTLTISDEIVPAVYSLNIKQRFADVQLVLACGDLPIYYLEFVVTMLGQPCFYVWGNHDAPEVQADGQVVSYARGATCIEDHVVCHQGLLIGGLGGSIRYKPDGHHQYTETQMMLRVLRMAPRLFLNRLRYGRYLDVLLTHAPPLGIHNGPDYPHRGFLALLRFIQWFRPRYLIHGHIHLSYGFGHATETLYGQTLVINTAGYRVLDLAI, MGSDKIHHHHHHMRVASPETFASQSYRLLPFRFERVNDDRFLLINEVGEHCYLNCADLNNLVNGYLTTSGKTFQNLESKSFVYSENNNFALRAFSAKYRARKSFLFDGPALHIFVLTLRCENSCEYCQVTRRSPDAVKYDMPLSIAKQAVLRMFESPAENLTVEFQGGEPLLAYDVLKYIVELCIELNITEQKSLQFVVATSLQNINMEMLEFFHLHNVHISTSVDGPQWLHQLNRPNSCSNSYEKTMHGLEMARGVLGHDRIAGMTTITRSSLTAIKTIIDEYVRLGFHSIFLRPLNMYGFAVKKENKVGYSSEDFNKFYEQALKYIIEINQQGYRLDEVNAALALNNILTPQATGYVDMRSPCGDGTGVLVYNYDGKVYPSDESRMLVEMGDESLALGSVSESYQDLMSSSVLNTILHAGIAEALPGCSDCAYLPYCGANPIQNYSRYGDMIGHRTFSAFCAKQKFLYRYVFNLLQDKSNRTVFNSWLPL, MGSDKIHHHHHHMRVIKVKTISETLDYISKHTASVARFGDGEIDIIAGNSIPYQVYASALAARLERLLNRQSNEKLVICVSDVFDNLGRYNDFSQQFWRDHLYQYNDLYQKNCQAEWYGSTFISRPYMDLLDKSLSVTYFEQLKALWKNKDILIVEGETSRSGVGNDLFNDANTISRIICPSKDAFSSFYEIKETILEHSRGKLILLMLGPTAKLLAEDLSQLGHQAIDLGHIDSEYEWFKMGAVSKVKLSHKHTAEHNFDEDITLIEDNSYENQIVSKIGTSDRQYALTVTLTDDIWELEHLLQRCPNTDFHIAAPVYCSDRLKQLVGYPNYYLHEAITEEQFEVLLLNSDIYLDINHGEEVWNVVDRCITEGKTIYGIRRARKDNQYISFERTMDDFEYLCDTIKQNR, MGSDKIHHHHHHMSAALSCGTIHGVGLGPGAPDLLSVRSDRLVRGARHVAYFRKAGRPGQARRIVEGMLRPDVIEIPMEYPVTTEIPLSDPRYNDCLSAFYAECTQRLVMLAQAGEDVVVLCEGDPFFYGSFMHLHTRLAGTVPVAVVPGITGMAGAWNATGIPITWGDDVLTIAMATLPEDELVRRIRDTDALVVMKIGRNLPKLRRAVAAAGREDAAWLVEHAAMPGQRVTRLIEAETVTPYFSILLIHGQGRRP, MGSDKIHHHHHHMSAIHIKYPALTFKAGQRALRHIRERGLQAADVGVLPGAAGGPKPLGIQGLDLALFGEWLPSAPRQRALIGASIGAWRFASACLDDPVAGIRRLGELYTEQDFAKGVTPAEISRSCQRMLDDLLEGRDGQLLANPHYRLNILVVKSHGQLAHDHRGRLGLGLGSVVASNLLGRSRLARHFERIILHDGRAAPPLDTLTDFPSRYLPLDLTNLRHALLASGSIPMVMQGVKDIPGAGAGTYRDGGLLDYHLDLPYRGDDLVLYPHFTDKVVPGWFDKALPWRKGDATRLQNVLLMTPSPQYLAALPYGKLPDRNDFKRFMGDAPGRKRYWYKAIAESQRLGDELLELTATGRLHERLQAL, MGSDKIHHHHHHMSDAMHTLLTASPLLDLHHPEIEALVARRDWLTLSPYDRIGAVYDFVRNEIAFGYNEGDELPASRVLADGIGQCNTKSTLLMALLRAVGIPCRFHGFTIDKPLQKGAITGLAYWLAPQRIIHSWVEVSLEGRWIALEGFILDAPYLASLQRRFPQARRFCGYGAATPDLSAPGVDWRGQDAYIQKEGIADDFGVFDSPDAFYARHGSNLSGVKRWLYERVIRHRMNRNVARVRASKW, MGSDKIHHHHHHMSDDELLFAEEDPSDNVGEGIGRAPWVILVVDDDTEVHALSRLLLSEIEFKGRRVAMYSAYSAAEARAMLGRIDDVAVILLDVVMETDDAGLKLVRTIRETMNNRDVRIILRTGQPGQAPEREVIETYDINDYKSKTELTAQKLHTALVAALRAYDDIMALVLSRQGLRKILDAAASLYRQRSMELFAAGVLTQINALLGGDRDGILCVQSRKEQADEDDPAGAMVVLAASGAYERLVGKRVDELPESPVISLIREAAASRTSRHGSHASALYMPTGDGRETVVFLHAAEPLKAQDRALMQLFCDNISAGFDTVCEIDDLRRENVRLRARLGEAKAP, MGSDKIHHHHHHMSDRLDEVDKRILYNLVRDARNTSAPDIADEVNVSAGTIRNRITHLEAAGIIRGYHAVVSYPQVGGRLTNLYICTSPVPDRDRLSKQVAEIPGVVSVRQLMKGRSNLHVTAVGDDMQELTRIANDLSAIGLDIEEENLLQSEEIRPYHEFGPDDSQDGHTIADFMELSGGAEVVELSVAADAEIAGHTLREANERGVIESDVLVVSIERDDEMLTPRGDTRVRPDDLVTVFCRGGISQETLSVFGKRGSATET, MGSDKIHHHHHHMSDSFDVLWLNASPILKRFDKPLLDYLSGYMRIAQWEYQQTKDEASSIDQAVELLHNFLEWRDRPVHLAGHGMSGAIALTFARRFPQKVRSLTLLSVAAQPANNWQAHYYFQRQLFSISRELVLASTVRSLFGNQPPHTTKKLVAALDKDLEQSPSQHSLFKLVYLPKGGVSMPMMVCGSKSDPVVNPTVLHDWLNWLKPEDKLWECPQGYHFFHYFYPQQVGEEILSFWKRHPSHLLEASALSFSTSTN, MGSDKIHHHHHHMSDTLTDSRIVYFYEAVRCGTIRAAADWLDVAPSAVSRQIGLLEKELDATLVERHARGVTPTDAGRCVIEYFREQLAHRDDLISRLQELRGLKTGQVSLVLGEGFVSDLLAGPMQQFCRQFPGIRVNLDVGSTNDVIRKISNDEGEIGLVYNPPAEPKLVSRASKRQPMMAIVGPDFPRRSHKVLTVQQLATYPMAATHPSYGTRQMMEAVEYAERVRLAPIITTNSFAILKEFVKSGLGISVMPAFAVAAELQAKELFAIEIAHPILENAEAHMVTRVGRKLSVAANKMLQMMTGQMRAFR, MGSDKIHHHHHHMSDVNASLVDGKKILVTGGAGFIGCAISERLAARASRYVVMDNLHPQIHASAVRPGALHEKAELVVADVTDAGAWDALLSDFQPEIIIHLAAETGTGQSLTEASRHALVNVVGTTRLTDALVKHGIVVEHILLTSSRAVYGEGAWQKDDGTIVYPGQRGRAQLEAAQWDFPGMTMLPSRADRTEPRPTSVYGATKLAQEHVLRAWSLATKTPLSILRLQNVYGPGQSLTNSYTGIVALFSRLAREKKVIPLYEDGNVTRDFVSIDDVADAIVATLVRTPEALSLFDIGSGQATSILDMARIIAAHYGAPEPQINGAFRDGDVRHAACDLSESLANLGWKPQWSLKRGIGELQTWIAQELDRKN, MGSDKIHHHHHHMSDYYKTYDLKHVINASGKMTILGVSKVPEVAIQAQQFGDTHFFEIKDLVDKTGAYIAKKLGTEGAVVVNSASAGIAEAVAGIIGQGSKYHAYHPFSPRFTKREIILPKGQNVDYGTPEEVMIELGGGQVVEAGYANMCTPEHIEMMITEQTAAIFYVKSHHAVQKSMLTIPEALEVAHKHDLPLILDAAAEEDLKKYVDLGVDVVLFSGAKAIEGPASGLVFGKEPYIGWTKLQSLGIGRAMKIGKENILGFTTALIHYLDNGPESGDAMKARLHPFVAALNEVPHLNVKEVQDGAGRPIFRAAVTVEATSPNNAKQVTAELKAGDPAIYTREYRANEGIIEFDIRAVDQAEMDLIVTRLKEILA, MGSDKIHHHHHHMSEALNVDIQEIAKFEKMAATWWDPDGEFKPLHQLNPLRLNYIDQTSGGLFGKKVLDVGCGGGILSESMARLGANVTGIDMGNEPLEVARLHALETGVSLNYERCTAEEHREVNREAYDVVTCMEMLEHVPDPLSVIAACCDMVKPGGYVFFSTINRNLRSYVETILGAEYLLKMLPVGTHDHGKFIRPSELIAMVDQTELLCKDATGVTYNPITGTFRYTSSVEVNYMIATVKPLE, MGSDKIHHHHHHMSEFDAIFVGAGHNSLACAAHLALKGWKTGIFERSSTIGGAVQTREFTLPGFRHDFGAMNLSLFAGSAFHRKYANELKTQGLEFAPVADCFASAFPDGRWFGVSNDLEKTASRMAAFSAADAATWRKLVAAFPGEAEHLFRLLGSPMSARALAGTAWNLWRKKGVAGALDTGRLLLSSPRTWLEETFESPYVRATLATWGMHLDFAPDIAGGAVFPYLESMANQSFGMVLGKGGADTIIRALAGMVTSAGGKIVTGAEVSEITVSNGKATGVRLTSGETHTATKAVIAGVAPKALTGTLLPGGSGNAGFDTAMKKFRYAPGTMMIHLALDELPGWRAGSELRQFAYVHLSPSLDAMSRTYQQAMAGMLPDEPVLVVGQPTAIDPSRAPQGKHVLWVQVRMLPAEITGDAGGKIAPAHWDQVKDAYAERVLDIIETYAPGLRSKILGRSVFSPIDLERENPNLVGGDQVCGSHHLAQNFLFRPARGYAGWNTPVGNLHLTGAATWPGAGTGAASGFMLAQQLGGR, MGSDKIHHHHHHMSENPIDAFIPEDIRDLYEIHNYRNAAQVLATGCPNEFQEIIEALRVFRLTLADIRKPGGNESDIPKRISGLLRAKGWMETRIKGDLLITKVSGTIDKNLGEKDLEGMEENESDTLEKIEELKNKGQVERIVRENFLDGHKVDYVKKRVAFDLEWNSKDQTFDRDLYAFRAFHECDLIDAAILLTRSASLNAVFEKLGPELNSDGTPKTSKNGKPKLIKTKYGASTTWMGKLLYRLNACRHGGCPVLALGITPNLITDWAEYESKNT, MGSDKIHHHHHHMSFDNLCKLLSEKHPATFASWVLGTPQTSVKVLKTELSIEPIRADYVTFLQLQGRILHLEFQTKLESTPPLPLRMLDYWVRLYRLYRLPITQVVVLLLPPAPGTVIETVFCVETTRHEYRVIRLWEENPELFLNEPALLPLAPLAATTQPQALLQQVVGKVNQLEPRQRPEISAYTQILAGLKYNQDLIRQLFREGMMRESVIYQEILAEGEQLGELRGRKAEGQLLILRQLTRRVGELPQEMLNRIETLSLEQLENLGEALLDFQAIADLEAWFGTLDIGVKMT, MGSDKIHHHHHHMSFLQEINLKLDVFEGPLDLLLHLIQKLEIDIYDIPITAVTEQYMSYIHAMQTLELEVAGEYLVMAATLMAIKSQMLLPKQELEIIDDEDFFEEEDPREALVAQLLEYRKFKYAATVLHEKEEERKLYYTKEPMDMDDYKEEDTTLPPNQINTIDLFLAFHAMLEKKKNRQPVETTVASDDVSIEEKISAISERMRQVQKGKAVSFDSFFDSYSKQEIVTTFMALLELMKTGAIYAEQENNYSEILLFNTETQQEDTTEVEETQ, MGSDKIHHHHHHMSGIRLVRAKITYLHDSCTFNFINENMSVKLLWSVPYRGDRMITYESVYPIQSKDVAKLIITKVRNNPKTLSVFDRSINGKTLFIGYLEYSDNSPFYLSNRVGTIFYDEYTGTGGDVISMITTADNFDLIREDLSVYGKIVHRQVQEIEAESINGPPRLTEMQEKVLRNAFEMGFFNYPKDVHLKDIAQKIGVSAVSVDQYLREAQRKLIRAYLNG
